Patent publication US10907134B2, “Mutated genes for the catalytic protein of oplophorus luciferase and use thereof” (JNC CORPORATION, priority 2013, dated 2021)

Tests used:
CHO-K1 cells [1] = assay: Luminescence activity of KAZ mutants expressed in animal culture cells without secretional signal peptide sequence; format: cell-based, Chinese hamster; settings: for Relative Luminescence Activity (Imax) Cell Extracts / Relative Luminescence Activity (Imax) Culture Medium: Table 12, pcDNA3- vectors without secretion signal; for Relative Luminescence Activity (Imax) Cell Extracts / Relative Luminescence Activity (Imax) Culture Medium / Luminescence activity in the cell extracts, fold higher than wild KAZ: CHO-K1, coelenterazine; for Luminescence activity compared with wild KAZ when coelenterazine was used as a substrate: summary of results; for Luminescence activity in the cell extracts, fold higher than wild KAZ: vectors without a secretion signal
Description: Chinese hamster ovary cell line CHO-K1 was cultured in Ham's F-12 medium (manufactured by Wako Pure Chemical Industries, Ltd.) supplemented with 10% (v/v) fetal bovine serum (manufactured by Biowest Inc.). The CHO-K1 cells were plated in a 6-well plate in 1×10^5 cells/well/2 mL medium (n=2) and cultured in an incubator at 37° C. in 5% (v/v) CO2. After 24 hours, the purified recombinant plasmid was transfected to CHO-K1 cells using a FuGene HD transfection kit (manufactured by Promega Corp.), which was provided for subsequent experiment. Specifically, 1 μg of the recombinant plasmid pGL4.13 [Luc2/sv40], 0.1 μg of the internal standard vector and 3 μL of FuGene HD were added to 100 μL of the medium, which was allowed to stand at room temperature for 15 minutes. Subsequently, 100 μL of the DNA-FuGene complex was added to the cells in the 6 wells. After incubation for 48 hours, the culture medium was collected. On the other hand, the KAZ mutants expressed in the cells were washed 3 times with 3 mL of 1×PBS, then suspended in 1 mL of 1×PBS and disrupted on ice by ultrasonication, which was used as enzyme solutions of the cell-extracts of KAZ mutants.
A luminescence reaction was started by adding 5 μL of the culture media and cell extracts obtained in EXAMPLE 10 to 100 μL of 30 mM Tris-HCl (pH 7.6)-10 mM EDTA (manufactured by Wako Pure Chemical Industries, Ltd.) containing 0.5 μg of coelenterazine (manufactured by INC Corp.). The luminescence activity was determined using a luminometer (manufactured by Atto Inc.: AB2200) for 60 seconds, and the maximum intensity of luminescence (Imax) was defined as a percentage.
The gene fragments of the KAZ mutants with two amino acid substitutions and three amino acid substitutions and nanoKAZ containing the Kozak sequence were digested with restriction enzymes Asp718 and XbaI, and inserted into the Asp718-XbaI site of pcDNA3 vector (manufactured by Invitrogen Inc.) to construct the vectors of pcDNA3-KAZ-V44I, pcDNA3-KAZ-A54I, pcDNA3-KAZ-Y138I, pcDNA3-KAZ-V44I-A54I, pcDNA3-KAZ-V44I-Y138I, pcDNA3-KAZ-A54I-Y138I and pcDNA3-KAZ-V44I-A54I-Y138I.
The culture media of the KAZ mutants with two amino acid substitutions and KAZ mutants with three amino acid substitutions and the enzyme solutions of cell-extracts of KAZ mutants were obtained in the same manner as EXAMPLE 10.
Luminescence activities of the resulting enzyme solutions and enzyme solutions of the cell-extracts of KAZ mutants were determined in the same manner as EXAMPLE 11.

[2] = Substrate specificities of KAZ mutants (ZZ-fused, crude enzyme), 6h-CTZ; format: biochemical; settings: for Relative Luminescence Activity 6h-CTZ Int. / Relative Luminescence Activity 6h-CTZ Imax: 1 μg substrate; for Relative Luminescence Activity 6h-CTZ Int.: integrated for 60 seconds; for Relative Luminescence Activity 6h-CTZ Imax: maximum intensity of luminescence
Description: (§1) The coelenterazine analogues used for substrate specificity studies were synthesized by the methods described in publications. Specifically, bis-coelenterazine was synthesized by the method described in Nakamura et al. (1997) Tetrahedron Lett. 38: 6405-6406; furimazine by the method described in Hall et al. (2012) ACS Chem. Biol. […]; and, 6h-coelenterazine, f-coelenterazine and 6h-f-coelenterazine by the methods described in Inouye et al (2013) Biochem. Biophys. Res. Commun. 437: 23-28.
(§2) DTT was added to the crude enzyme solutions obtained in EXAMPLE 17 at a final concentration of 1 mM and the mixtures were allowed to stand in an ice water for more than 5 hours in the same manner as Example 8. A luminescence reaction was started by the addition of 1 μL each of the crude enzyme solutions to 100 μL of TE containing 1 μg of coelenterazine (manufactured by JNC Corp.) or its analogues. The luminescence activities were determined using a luminometer (manufactured by Atto Inc.: AB2200) for 60 seconds, and the maximum intensity of luminescence (Imax) was shown as relative luminescence activity.

[3] = Substrate specificities of KAZ mutants (ZZ-fused, crude enzyme), 6h-f-CTZ; format: biochemical; settings: 1 μg substrate; for Relative Luminescence Activity 6h-f-CTZ Int.: integrated for 60 seconds; for Relative Luminescence Activity 6h-f-CTZ Imax: maximum intensity of luminescence
Description: as §1, §2

[4] = Substrate specificities of KAZ mutants (ZZ-fused, crude enzyme), furimazine; format: biochemical; settings: 1 μg substrate; for Relative Luminescence Activity Furimazine Int.: integrated for 60 seconds; for Relative Luminescence Activity Furimazine Imax: maximum intensity of luminescence
Description: as §1, §2

[5] = Substrate specificities of KAZ mutants (ZZ-fused, crude enzyme), bis-CTZ; format: biochemical; settings: 1 μg substrate; for Relative Luminescence Activity bis-CTZ Int.: integrated for 60 seconds; for Relative Luminescence Activity bis-CTZ Imax: maximum intensity of luminescence
Description: as §1, §2

[6] = Substrate specificities of KAZ mutants (ZZ-fused, crude enzyme), h-CTZ; format: biochemical; settings: 1 μg substrate; for Relative Luminescence Activity h-CTZ Int.: integrated for 60 seconds; for Relative Luminescence Activity h-CTZ Imax: maximum intensity of luminescence
Description: as §1, §2

CHO-K1 cells [7] = assay: Luminescence activity of KAZ mutants expressed in animal culture cells with signal peptide of Gaussia luciferase for secretion; format: cell-based, Chinese hamster; settings: pcDNA3-GLsp- vectors; for Relative Luminescence Activity (%, Imax) Cell Extracts / Relative Luminescence Activity (%, Imax) Culture Medium: Table 11, CHO-K1, coelenterazine
In short: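 CHO-K1 cells were transfected with the KAZ mutant plasmid plus an internal standard vector. After 48 h, culture medium and sonicated cell extracts were collected. 5 μL of each was added to 0.5 μg coelenterazine in 30 mM Tris-HCl pH 7.6, 10 mM EDTA, and luminescence was read for 60 s, with maximum intensity (Imax) expressed as a percentage.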

[8] = Substrate specificities of KAZ mutants (ZZ-fused, crude enzyme), CTZ; format: biochemical; settings: for Relative Luminescence Activity CTZ Int. / Relative Luminescence Activity CTZ Imax: ZZ-fused crude enzyme, 1 μg substrate; for Relative Luminescence Activity CTZ Int.: integrated for 60 seconds; for Relative Luminescence Activity CTZ Imax: maximum intensity of luminescence; for Substrate specificity: coelenterazine versus its analogues
Description: as §1, §2

| Relative Luminescence Activity 6h-CTZ Int. [2] | Relative Luminescence Activity 6h-CTZ Imax [2] | Relative Luminescence Activity 6h-f-CTZ Int. [3] | Relative Luminescence Activity 6h-f-CTZ Imax [3] | Relative Luminescence Activity Furimazine Int. [4] | Relative Luminescence Activity Furimazine Imax [4] | Relative Luminescence Activity bis-CTZ Int. [5] | Relative Luminescence Activity bis-CTZ Imax [5] | Relative Luminescence Activity h-CTZ Int. [6] | Relative Luminescence Activity h-CTZ Imax [6] | Relative Luminescence Activity CTZ Int. [8] | Relative Luminescence Activity CTZ Imax [8] | Molecule | Relative Luminescence Activity (Imax) Cell Extracts (CHO-K1 cells [1]) | Relative Luminescence Activity (Imax) Culture Medium (CHO-K1 cells [1]) | Luminescence activity compared with wild KAZ when coelenterazine was used as a substrate (CHO-K1 cells [1]) | Luminescence activity in the cell extracts, fold higher than wild KAZ (CHO-K1 cells [1]) | Relative Luminescence Activity (%, Imax) Cell Extracts (CHO-K1 cells [7]) | Relative Luminescence Activity (%, Imax) Culture Medium (CHO-K1 cells [7]) | Substrate specificity [8] | further results |
| --- | --- | --- | --- | --- | --- | --- | --- | --- | --- | --- | --- | --- | --- | --- | --- | --- | --- | --- | --- | --- |
| 6.1 | 5.8 | 5.7 | 5.2 | 5.8 | 5.9 | 9.2 | 9.5 | 12.9 | 24.2 | 19.1 | 23.1 | KAZ-A54I-Y138I: KAZ mutant with two amino acid substitutions A54I and Y138I, SEQ ID NO: 14 (protein) FTLADFVGDWQQTAGYNQDQVLEQGGLSSLFQALGVSVTPIQKVVLSGENGLKIDIHVIIPYEGLSGFQMGLIEMIFKVVYPVDDHHFKIILHYGTLVIDGVTPNMIDYFGRPYPGIAVFDGKQITVTGTLWNGNKIIDERLINPDGSLLFRVTINGVTGWRLCENILA | 21.5 | 0.05 | markedly higher luminescence activities than wild KAZ | 22 fold | 16.0% | 0.03% | high substrate specificity for coelenterazine |  |
| 11.1 | 12.9 | 9.6 | 9.5 | 9.2 | 10.6 | 11.9 | 13.3 | 33.2 | 83.1 | 66.7 | 66.7 | KAZ-V44I-A54I-Y138I: KAZ mutant with three amino acid substitutions V44I, A54I and Y138I, SEQ ID NO: 16 (protein) FTLADFVGDWQQTAGYNQDQVLEQGGLSSLFQALGVSVTPIQKIVLSGENGLKIDIHVIIPYEGLSGFQMGLIEMIFKVVYPVDDHHFKIILHYGTLVIDGVTPNMIDYFGRPYPGIAVFDGKQITVTGTLWNGNKIIDERLINPDGSLLFRVTINGVTGWRLCENILA | 56.0 | 0.08 | markedly higher luminescence activities than wild KAZ | 56 fold | 16.2% | 1.7% | high substrate specificity for coelenterazine | Luminescence activity compared with dnKAZ with 6h-coelenterazine [2]: higher luminescence activity than dnKAZ |
| 0.2 | 0.1 | 0.7 | 0.6 | 0.5 | 0.4 | 0.9 | 0.6 | 0.7 | 1.1 | 1.0 | 1.0 | KAZ: wild 19 kDa catalytic protein of Oplophorus luciferase (19kOLase), amino acid sequence SEQ ID NO: 2 (protein, listed as Oplophorus gracilirostris) FTLADFVGDWQQTAGYNQDQVLEQGGLSSLFQALGVSVTPIQKVVLSGENGLKADIHVIIPYEGLSGFQMGLIEMIFKVVYPVDDHHFKIILHYGTLVIDGVTPNMIDYFGRPYPGIAVFDGKQITVTGTLWNGNKIYDERLINPDGSLLFRVTINGVTGWRLCENILA | 1.0 | 0.03 |  |  | 0.3% | less than 0.01% |  | Relative Luminescence Activity (Imax) (%) Cell Extracts (CHO-K1 cells [7]; Table 5, CHO-K1, 48 hours, 5 μL cell extracts, 0.5 μg coelenterazine): 0.1%; Relative Luminescence Activity (Imax) (%) Culture Medium (CHO-K1 cells [7]; Table 5, CHO-K1, 48 hours, 5 μL culture medium, 0.5 μg coelenterazine): less than 0.01% |
